Read-outs that look alike come from different tables or passages of the source.
Columns and labels:
[1] = molecular target: T1, c-Ret on NB41A3-mRL3 cells (UniProt P35546 29-1115, limits assumed); assay: cell-based or functional assay
c-Ret = molecular target: T2, c-Ret (Mus musculus, UniProt O35118+P35546); assay: Kinase Receptor Activation (KIRA) ELISA: neublastin dependent phosphorylation of c-Ret in NB41A3-mRL3 cells; assay type: cell-based, murine; conditions: for KIRA: ~Max Efficacy vs WT: relative to wild-type, NB41A3-mRL3 cells; for activity / potency in the KIRA ELISA (in words): compared with wild-type NBN113 / mature form
T2 construct: NB41A3-mRL3 cells, an adherent murine neuroblastoma cell line which expresses Ret and GFRα3; endogenous in cells; host or cells: NB41A3-mRL3 (murine neuroblastoma)
T2 sequence (P35546 29-1115): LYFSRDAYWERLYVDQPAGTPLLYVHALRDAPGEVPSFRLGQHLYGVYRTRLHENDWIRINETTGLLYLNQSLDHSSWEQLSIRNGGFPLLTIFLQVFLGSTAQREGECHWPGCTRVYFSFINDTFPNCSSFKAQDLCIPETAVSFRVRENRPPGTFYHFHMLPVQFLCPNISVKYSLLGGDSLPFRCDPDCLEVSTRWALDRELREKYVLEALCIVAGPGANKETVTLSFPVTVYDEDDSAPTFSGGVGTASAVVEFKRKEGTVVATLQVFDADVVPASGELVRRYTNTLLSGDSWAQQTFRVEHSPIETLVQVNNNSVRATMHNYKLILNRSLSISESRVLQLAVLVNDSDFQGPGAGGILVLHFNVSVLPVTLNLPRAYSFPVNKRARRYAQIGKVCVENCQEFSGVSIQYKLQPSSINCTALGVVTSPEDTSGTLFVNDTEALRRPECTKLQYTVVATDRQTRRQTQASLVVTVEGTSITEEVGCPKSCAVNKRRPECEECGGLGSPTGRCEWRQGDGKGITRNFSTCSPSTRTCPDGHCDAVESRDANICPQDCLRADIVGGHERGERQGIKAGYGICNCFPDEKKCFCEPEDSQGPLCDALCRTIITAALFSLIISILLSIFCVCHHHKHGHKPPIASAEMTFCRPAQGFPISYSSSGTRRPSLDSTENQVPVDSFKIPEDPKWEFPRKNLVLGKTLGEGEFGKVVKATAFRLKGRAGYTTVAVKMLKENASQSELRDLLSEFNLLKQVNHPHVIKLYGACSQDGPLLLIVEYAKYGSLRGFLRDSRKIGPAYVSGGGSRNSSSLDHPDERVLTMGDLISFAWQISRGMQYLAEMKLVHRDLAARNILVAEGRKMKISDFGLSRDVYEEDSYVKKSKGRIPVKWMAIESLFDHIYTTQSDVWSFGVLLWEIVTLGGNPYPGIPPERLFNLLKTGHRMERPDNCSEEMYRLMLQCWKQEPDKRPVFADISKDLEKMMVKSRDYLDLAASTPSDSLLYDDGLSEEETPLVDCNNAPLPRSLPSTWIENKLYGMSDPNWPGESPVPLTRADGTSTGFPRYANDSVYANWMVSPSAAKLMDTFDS
T2 sequence (O35118 29-397): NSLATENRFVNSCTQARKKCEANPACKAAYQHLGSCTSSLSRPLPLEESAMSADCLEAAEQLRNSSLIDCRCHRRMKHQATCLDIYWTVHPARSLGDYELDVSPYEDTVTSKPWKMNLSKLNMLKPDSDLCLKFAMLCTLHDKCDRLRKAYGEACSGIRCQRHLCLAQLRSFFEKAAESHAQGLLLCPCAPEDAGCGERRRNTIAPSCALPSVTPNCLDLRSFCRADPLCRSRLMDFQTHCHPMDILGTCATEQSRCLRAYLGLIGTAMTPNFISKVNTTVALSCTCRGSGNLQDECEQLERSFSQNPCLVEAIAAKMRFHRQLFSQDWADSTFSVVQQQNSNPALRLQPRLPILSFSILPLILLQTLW
Procedure: The potency of PEGylated mutated rat neublastin was measured using neublastin dependent activation/ phosphorylation of c-Ret as a reporter for neublastin activity in an ELISA that was specific for the presence of phosphorylated RET. NB41A3-mRL3 cells, an adherent murine neuroblastoma cell line which expresses Ret and GFRα3, were plated at 2 x 10^5 cells per well in 24-well plates in Dulbecco's modified eagle medium (DMEM), supplemented with 10 % fetal bovine serum, and cultured for 18 h at 37 °C and 5 % CO2.
The cells were washed with PBS, and treated with serial dilutions of neublastin in 0.25 mL of DMEM for 10 min at 37°C and 5 % CO2. Each sample was analyzed in duplicate. The cells were washed with 1 mL of PBS, and lysed for 1h at 4 °C with 0.30 mL of 10 mM Tris HC1, pH 8.0, 0.5 % Nonidet P40, 0.2 % sodium deoxycholate, 50 mM NaF, 0.1 mM Na3 VO4,1 mM phenylmethylsulfonyl fluoride with gently rocking the plates. The lysates were further agitated by repeated pipetting and 0.25 mL of sample was transferred to a 96-well ELISA plate that had been coated with 5 µg/mL of anti-Ret mAb (AA.GE7.3) in 50 mM carbonate buffer, pH 9.6 at 4°C for 18 h, and blocked at room temperature for one hour with block buffer (20 mM Tris HC1 pH 7.5, 150 mM NaCl, 0.1% Tween-20 (TBST) containing 1 % normal mouse serum and 3 % bovine serum albumin).
After a 2 h incubation at room temperature, the wells were washed 6-times with TBST. Phosphorylated Ret was detected by incubating the wells at room temperature for 2 h with 2 µg/mL of horseradish peroxidase (HRP)-conjugated anti-phosphotyrosine 4G10 antibody in block buffer, washing 6-times with TBST, and measuring HRP activity at 450 nm with a colorometric detection reagent. The absorbance values from wells treated with lysate or with lysis buffer were measured and the background corrected signal was plotted as a function of the concentration of neublastin present in the activation mixture.
Neublastin activity was determined by its ability to stimulate c-Ret phosphorylation in NB41A3-mRL3 cells using the KIRA ELISA described in Example 3. Phosphorylated Ret was detected by incubating (2 hours) the captured receptor with HRP-conjugated phosphotyrosine antibody (4G10; 0.2 µg per well). Following the incubation, the wells were washed six times with TBST, and the HRP activity detected at 450 nm with a colorimetric assay. The absorbance values from wells treated with lysate or with lysis buffer alone were measured, background corrected, and the data plotted as a function of the concentration of neublastin present in the activation mixture.

[2] = parameters: species or system mice; conditions: mouse, in vivo, sc
Source text: The pharmokinetic properties of various PEGylated and non-PEGylated mutated neublastin products in rat and mouse models were examined (see Table 8 for summary of results). The analysis of the PEGylated […] samples are complicated by the presence of adducts comprising 2, 3 and 4 PEGs per molecule, which each will display a different PK profile. In early PK studies, mice were used to facilitate screening through a variety of candidates and routes of administration. […] This difference in bioavailability was particularly pronounced following i.p. administration. Levels in mice reached 1600 ng/mL after 7 hr and remained at 400 ng/mL after 24 hr. In contrast, rat levels were constant at 100 ng/mL for 4-48 hr. Two surprising and unexpected results emerged from the PK studies summarized in Table 8: 1) PEGylation of the amino-terminal amino acids of non-glycosylated neublastin was not sufficient to increase serum exposure substantially, and 2) PEGylation of the amino-terminal amino acid(s) of neublastin together with modification (e.g. PEGylation or glycosylation) of amino acid 95 was sufficient to increase serum exposure substantially.

[3] = molecular target: T1, c-Ret on NB41A3-mRL3 cells; assay: cell-based or functional assay; remark: listed apart in the source
[4] = molecular target: T1, c-Ret on NB41A3-mRL3 cells; assay: cell-based or functional assay; remark: listed apart in the source
[5] = estimated EC50, NB41A3-mRL3 cells

T1 sequence (P35546 29-1115 limits assumed): as the sequence (P35546 29-1115) above

| Molecule | KIRA: ∼EC50 [3] | KIRA: ∼Max Efficacy vs WT [3] | Exposure in Mice After s.c. Administration [2] | also measured |
| --- | --- | --- | --- | --- |
| BSA-conjugated neublastin (monosubstituted product) (from UniProt P02769 25-607) |  |  |  | IC50 in the KIRA ELISA [1]: 3 to 6 nM |
| 1 X 20 kDa PEG-NBN104 (CHO) (from UniProt Q5T4W7 117-220) (ligand) |  |  |  | KIRA: ∼EC50 [1]: 0.3 nM; KIRA: ∼Max Efficacy vs WT [1]: 110% |
| 2 X 20 kDa PEG-NBN104 (CHO) (from UniProt Q5T4W7 117-220) (ligand) |  |  |  | KIRA: ∼EC50 [1]: 1 nM; KIRA: ∼Max Efficacy vs WT [1]: 105% |
| NBN104 (CHO) (from UniProt Q5T4W7 117-220) (ligand) |  |  |  | KIRA: ∼EC50 [1]: 0.7 nM; KIRA: ∼Max Efficacy vs WT [1]: 90% |
| 1 X 20 kDa PEG-NBN104 (CHO): CHO derived NBN104 dimer glycosylated at 95,95 with one 20 kDa PEG at amino acid 1 (conjugate) AAGARGCRLRSQLVPVRALGLGHRSDELVRFRFCSGSCRRARSPHDLSLASLLGAGALRPPPGSRPVSQPCCRPTRYEAVSFMDVNSTWRTVDRLSATACGCLG |  |  | ++ | EC50 (c-Ret; [5]): 0.3 nM; KIRA: ~Max Efficacy vs WT (c-Ret): 110%; serum exposure after s.c. administration (in words) [2]: high serum exposure |
| 2 X 20 kDa PEG-NBN104 (CHO): CHO derived NBN104 dimer glycosylated at 95,95 with two 20 kDa PEGs at amino acids 1,1 (conjugate) AAGARGCRLRSQLVPVRALGLGHRSDELVRFRFCSGSCRRARSPHDLSLASLLGAGALRPPPGSRPVSQPCCRPTRYEAVSFMDVNSTWRTVDRLSATACGCLG |  |  | ++ | EC50 (c-Ret; [5]): 1 nM; KIRA: ~Max Efficacy vs WT (c-Ret): 105%; serum exposure after s.c. administration (in words) [2]: high serum exposure |
| rat mutated neublastin NBN106-N95K (non-PEGylated) (ligand) ARATDARGCRLRSQLVPVSALGLGHSSDELIRFRFCSGSCRRARSPHDLSLASLLGAGALRSPPGSRPISQPCCRPTRYEAVSFMDVKSTWRTVDHLSATACGCLG |  |  |  | specific activity in the KIRA ELISA [4]: ~10 nM |
| 4 X 10 kDa PEG NHN106-N95K: homodimer of NBN106-N95K conjugated to four 10 kDa PEG moieties (conjugate) ARATDARGCRLRSQLVPVSALGLGHSSDELIRFRFCSGSCRRARSPHDLSLASLLGAGALRSPPGSRPISQPCCRPTRYEAVSFMDVKSTWRTVDHLSATACGCLG |  |  | ++ | fold less potent than non-mutated (wild-type) NBN113 in activating Ret (c-Ret): approximately 10 fold; activity / potency in the KIRA ELISA (in words) (c-Ret): reduced potency |
| 3 X 10 kDa PEG NBN106-N95K: homodimer of NBN106-N95K conjugated to three 10 kDa PEG moieties (conjugate) ARATDARGCRLRSQLVPVSALGLGHSSDELIRFRFCSGSCRRARSPHDLSLASLLGAGALRSPPGSRPISQPCCRPTRYEAVSFMDVKSTWRTVDHLSATACGCLG |  |  | ++ | activity / potency in the KIRA ELISA (in words) (c-Ret): fully active |
| 2 X 20 kDa Branched PEG NBN106-N95K: NBN106-N95K dimer with two branched 20 kDa PEGs at amino acids 1,95 (conjugate) ARATDARGCRLRSQLVPVSALGLGHSSDELIRFRFCSGSCRRARSPHDLSLASLLGAGALRSPPGSRPISQPCCRPTRYEAVSFMDVKSTWRTVDHLSATACGCLG |  |  | ++ | KIRA: ~EC50 (c-Ret; [5]): inactive; KIRA: ~Max Efficacy vs WT (c-Ret): inactive |
| 3 X 10 kDa PEG-WT/ N95K-NBN106: wild-type/N95K NBN106 heterodimer with three 10 kDa PEGs at amino acids 1,1,95 (conjugate) chain 1: ARATDARGCRLRSQLVPVSALGLGHSSDELIRFRFCSGSCRRARSPHDLSLASLLGAGALRSPPGSRPISQPCCRPTRYEAVSFMDVNSTWRTVDHLSATACGCLG chain 2: ARATDARGCRLRSQLVPVSALGLGHSSDELIRFRFCSGSCRRARSPHDLSLASLLGAGALRSPPGSRPISQPCCRPTRYEAVSFMDVKSTWRTVDHLSATACGCLG |  |  | ++ |  |
| 3 X 10 kDa PEG NBN106-N95K (ligand, three 10 kDa PEG per dimer: on both amino-terminal amino acids and on one Lys95 (PEGylated amino acids 1,1,95)) ARATDARGCRLRSQLVPVSALGLGHSSDELIRFRFCSGSCRRARSPHDLSLASLLGAGALRSPPGSRPISQPCCRPTRYEAVSFMDVKSTWRTVDHLSATACGCLG | ~0.8 nM | ~100% |  |  |
| 2 X 10 kDa PEG-NBN (ligand, 10 kDa PEG on amino acid 1 of each chain (PEGylated amino acids 1,1)) AGTRSSRARATDARGCRLRSQLVPVSALGLGHSSDELIRFRFCSGSCRRARSPHDLSLASLLGAGALRSPPGSRPISQPCCRPTRYEAVSFMDVNSTWRTVDHLSATACGCLG | ~0.2 nM | ~72% |  |  |
| 2 X 20 kDa PEG-NBN: E. coli derived NBN113 dimer with two 20 kDa PEGs at amino acids 1,1 (conjugate) AGTRSSRARATDARGCRLRSQLVPVSALGLGHSSDELIRFRFCSGSCRRARSPHDLSLASLLGAGALRSPPGSRPISQPCCRPTRYEAVSFMDVNSTWRTVDHLSATACGCLG |  |  | + | serum exposure after s.c. administration (in words) [2]: low-to-moderate serum exposure |
| 2 X 5 kDa PEG-NBN (ligand, 5 kDa PEG on amino acid 1 of each chain (PEGylated amino acids 1,1)) AGTRSSRARATDARGCRLRSQLVPVSALGLGHSSDELIRFRFCSGSCRRARSPHDLSLASLLGAGALRSPPGSRPISQPCCRPTRYEAVSFMDVNSTWRTVDHLSATACGCLG | ~0.2 nM | ~105% |  |  |
| 2 X 20 kDa PEG-NBN (ligand, 20 kDa PEG on amino acid 1 of each chain (cell printed '1,1 1')) AGTRSSRARATDARGCRLRSQLVPVSALGLGHSSDELIRFRFCSGSCRRARSPHDLSLASLLGAGALRSPPGSRPISQPCCRPTRYEAVSFMDVNSTWRTVDHLSATACGCLG | ~0.6 nM | ~80% |  |  |
| 1 X 20 kDa Branched PEG-NBN (ligand, one 20 kDa branched PEG per dimer, on amino acid 1 of one chain (PEGylated amino acids: 1)) AGTRSSRARATDARGCRLRSQLVPVSALGLGHSSDELIRFRFCSGSCRRARSPHDLSLASLLGAGALRSPPGSRPISQPCCRPTRYEAVSFMDVNSTWRTVDHLSATACGCLG | ~0.2 nM | ~83% |  |  |

Now from value to molecule, other results behind:

| KIRA: ∼EC50 [3] | KIRA: ∼Max Efficacy vs WT [3] | Molecule | Exposure in Mice After s.c. Administration [2] | also measured |
| --- | --- | --- | --- | --- |
| ~0.7 nM | ~115% | 3 X 10 kDa PEG-WT/N95K-NBN106 (ligand, 10 kDa PEG on the amino-terminal amino acid and on Lys95; 10 kDa PEG on the amino-terminal amino acid) chain 1: ARATDARGCRLRSQLVPVSALGLGHSSDELIRFRFCSGSCRRARSPHDLSLASLLGAGALRSPPGSRPISQPCCRPTRYEAVSFMDVNSTWRTVDHLSATACGCLG chain 2: ARATDARGCRLRSQLVPVSALGLGHSSDELIRFRFCSGSCRRARSPHDLSLASLLGAGALRSPPGSRPISQPCCRPTRYEAVSFMDVKSTWRTVDHLSATACGCLG |  |  |
| ~1 nM | ~80% | 4 X 5 kDa PEG NBN106-N95K (ligand, 5 kDa PEG on the amino-terminal amino acid and on Lys95 of each chain (PEGylated amino acids 1,1,95,95)) ARATDARGCRLRSQLVPVSALGLGHSSDELIRFRFCSGSCRRARSPHDLSLASLLGAGALRSPPGSRPISQPCCRPTRYEAVSFMDVKSTWRTVDHLSATACGCLG |  |  |
